Measurements as given in publication PMC7498309.

Legend:
[1] = molecular target: isolated CARF domain (1–169 aa) of StCsm6 (Streptococcus thermophilus DGCC8004); test: SEC
[2] = molecular target: isolated HEPN domain (172–428 aa) of StCsm6 (Streptococcus thermophilus DGCC8004); test: SEC

isolated CARF domain (1–169 aa) of StCsm6 (domain or fragment)
stoichiometry N [1]: 2

isolated HEPN domain (172–428 aa) of StCsm6 (domain or fragment)
stoichiometry N [2]: 2
